Laboratory results as given in patent US20210093714A1, “Combination and method for inhibiting the cancer cells” (NATIONAL TAIWAN UNIVERSITY, priority 2013, published 2021).

Tested on: c-Src
Test: Western blot of c-Src autophosphorylation
Format: cell-based, human
Conditions: CL1-5; 0 to 60 minutes; FIG. 3E
Procedure: Proteins ([…]) were separated by SDS-PAGE and transferred to a polyvinylidene difluoride membrane (Immobilon-P membrane; Millipore) by electrotransfer. The blot was blocked in a solution of 5% skim milk and 0.1% Tween 20 in PBS. Thereafter, membrane-bound proteins were probed with the following primary antibodies: CCN2, DAPK, phosphorylated ERK, ERK-1, phosphorylated Akt, Akt, TrkA, phosphorylated-Src, Src, b-actin, a-tubulin (Santa Cruz Biotechnology), p-EGFR, and EGFR (Cell Signaling Technology, Danvers, MA, USA). The membrane was washed and then incubated with HRP-conjugated secondary antibodies for 30 min. Enhanced chemiluminescence reagents (Amersham Pharmacia Biotech, Piscataway, N.J., USA) were employed to depict the protein bands on membranes. The light was captured on Kodak X-Omat Blue autoradiography film (PerkinElmer Life Sciences, Boston, Mass., USA).
Next, the effect of CCN2 on the formation of EGFR/Src complex and the phosphorylation of Src in the lung adenocarcinoma cell lines, CL1-5, A549 and CL1-0/siCCN2, was observed by western blot analysis, the results shown in FIGS. 3C to 3E.

B1: Connective tissue growth factor (CCN2), wild-type full length (ligand, human, UniProt P29279 27-349, looked up)
chain: QNCSGPCRCPDEPAPRCPAGVSLVLDGCGCCRVCAKQLGELCTERDPCDPHKGLFCHFGSPANRKIGVCTAKDGAPCIFGGTVYRSGESFQSSCKYQCTCLDGAVGCMPLCSMDVRLPSPDCPFPRRVKLPGKCCEEWVCDEPKDQTVVGPALAAYRLEDTFGPDPTMIRANCLVQTTEWSACSKTCGMGISTRVTNDNASCRLEKQSRLCMVRPCEADLEENIKKGKKCIRTPKISKPIKFELSGCTSMKTYRAKFCGVCTDGRCCTPHRTTTLPVEFKCPDGEVMKKNMMFIKTCACHYNCPGDNDIFESLYYRKMYGDMA
notes: also called Recombinant CCN2; exogenous CCN2
B1 was tested, and the “autophosphorylation of c-Src Y416” value was “gradually inhibit the autophosphorylation of c-Src^Y416”.
